Test results: patent US20250218531A1 (ABSCI, published 2025)
Substitutions are numbered along the chain they refer to. Where “and” joins values, the source holds several entries; their conditions need not be identical. Equal values may be shown once.

B1: Trastuzumab HCDR3 variant ARYGDAFIMSFGV (Fab, V domains shown)
VH: EVQLVESGGGLVQPGGSLRLSCAASGFNIKDTYIHWVRQAPGKGLEWVARIYPTNGYTRYADSVKGRFTISADTSKNTAYLQMNSLRAEDTAVYYCARYGDAFIMSFGVWGQGTLVTVSS
VL: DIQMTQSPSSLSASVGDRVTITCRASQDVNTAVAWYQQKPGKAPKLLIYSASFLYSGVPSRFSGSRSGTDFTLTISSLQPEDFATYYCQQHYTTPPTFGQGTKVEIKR
B2: Trastuzumab HCDR3 variant AVYGPYGGFSYDS (Fab, V domains shown)
VH: B1 VH with R98V, D101P, A102Y, F103G, I104G, M105F, F107Y, G108D, V109S
VL: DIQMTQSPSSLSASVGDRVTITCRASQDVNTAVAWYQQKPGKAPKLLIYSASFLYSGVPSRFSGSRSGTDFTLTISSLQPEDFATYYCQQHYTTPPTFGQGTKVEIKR
B3: Trastuzumab HCDR3 variant ARYGGGYYYYFDV (Fab, V domains shown)
VH: B1 VH with D101G, A102G, F103Y, I104Y, M105Y, S106Y, G108D
VL: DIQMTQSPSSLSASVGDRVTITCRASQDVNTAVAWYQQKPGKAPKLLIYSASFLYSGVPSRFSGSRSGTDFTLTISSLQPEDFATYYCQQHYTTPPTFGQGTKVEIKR
B4: Trastuzumab HCDR3 variant ARYYSDYSYTFSY (Fab, V domains shown)
VH: B1 VH with G100Y, D101S, A102D, F103Y, I104S, M105Y, S106T, G108S, V109Y
VL: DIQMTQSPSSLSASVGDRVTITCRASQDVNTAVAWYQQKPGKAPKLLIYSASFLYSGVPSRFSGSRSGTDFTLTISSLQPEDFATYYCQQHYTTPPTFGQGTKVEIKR
B5: Trastuzumab HCDR3 variant VRYPEVYGYYFDY (Fab, V domains shown)
VH: B1 VH with A97V, G100P, D101E, A102V, F103Y, I104G, M105Y, S106Y, G108D, V109Y
VL: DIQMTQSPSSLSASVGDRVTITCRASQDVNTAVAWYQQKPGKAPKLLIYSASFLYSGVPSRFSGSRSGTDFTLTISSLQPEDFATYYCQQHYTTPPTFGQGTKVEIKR
B6: Trastuzumab HCDR3 variant ARYGLNHYYVYPY (Fab, V domains shown)
VH: B1 VH with D101L, A102N, F103H, I104Y, M105Y, S106V, F107Y, G108P, V109Y
VL: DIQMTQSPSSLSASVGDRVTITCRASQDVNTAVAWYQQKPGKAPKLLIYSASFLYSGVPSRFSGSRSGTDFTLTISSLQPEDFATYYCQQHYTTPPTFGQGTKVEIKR
B7: Trastuzumab HCDR3 variant ASYYAPGSYGFDP (Fab, V domains shown)
VH: B1 VH with R98S, G100Y, D101A, A102P, F103G, I104S, M105Y, S106G, G108D, V109P
VL: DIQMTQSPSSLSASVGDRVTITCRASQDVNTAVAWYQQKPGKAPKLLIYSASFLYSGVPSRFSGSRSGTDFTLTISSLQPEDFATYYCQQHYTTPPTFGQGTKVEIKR
B8: Trastuzumab HCDR3 variant ARYGPYYYYAMDY (Fab, V domains shown)
VH: B1 VH with D101P, A102Y, F103Y, I104Y, M105Y, S106A, F107M, G108D, V109Y
VL: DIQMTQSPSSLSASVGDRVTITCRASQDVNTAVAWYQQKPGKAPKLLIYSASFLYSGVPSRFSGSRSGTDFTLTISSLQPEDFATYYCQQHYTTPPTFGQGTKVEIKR
B9: Trastuzumab HCDR3 variant ARYYYDFGYYFDY (Fab, V domains shown)
VH: B1 VH with G100Y, D101Y, A102D, I104G, M105Y, S106Y, G108D, V109Y
VL: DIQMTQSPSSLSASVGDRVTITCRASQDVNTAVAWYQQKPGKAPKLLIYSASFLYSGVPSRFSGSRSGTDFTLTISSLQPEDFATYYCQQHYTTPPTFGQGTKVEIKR
B10: Trastuzumab HCDR3 variant ARYGLYGSYYFRY (Fab, V domains shown)
VH: B1 VH with D101L, A102Y, F103G, I104S, M105Y, S106Y, G108R, V109Y
VL: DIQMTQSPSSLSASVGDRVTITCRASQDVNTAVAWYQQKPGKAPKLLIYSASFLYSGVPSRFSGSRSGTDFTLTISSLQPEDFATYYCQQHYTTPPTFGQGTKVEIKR
B11: Trastuzumab HCDR3 variant SRYGRGVYYYFDY (Fab, V domains shown)
VH: B1 VH with A97S, D101R, A102G, F103V, I104Y, M105Y, S106Y, G108D, V109Y
VL: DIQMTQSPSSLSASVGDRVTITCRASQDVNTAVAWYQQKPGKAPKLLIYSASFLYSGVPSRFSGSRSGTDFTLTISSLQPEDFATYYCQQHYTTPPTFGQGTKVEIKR
B12: Trastuzumab HCDR3 variant TRYYGGYGYYFDY (Fab, V domains shown)
VH: B1 VH with A97T, G100Y, D101G, A102G, F103Y, I104G, M105Y, S106Y, G108D, V109Y
VL: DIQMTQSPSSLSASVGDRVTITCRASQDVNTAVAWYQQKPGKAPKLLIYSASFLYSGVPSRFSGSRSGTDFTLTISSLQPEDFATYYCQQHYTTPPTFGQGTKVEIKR
B13: Trastuzumab HCDR3 variant TRWRWGYGYYFDF (Fab, V domains shown)
VH: EVQLVESGGGLVQPGGSLRLSCAASGFNIKDTYIHWVRQAPGKGLEWVARIYPTNGYTRYADSVKGRFTISADTSKNTAYLQMNSLRAEDTAVYYCTRWRWGYGYYFDFWGQGTLVTVSS
VL: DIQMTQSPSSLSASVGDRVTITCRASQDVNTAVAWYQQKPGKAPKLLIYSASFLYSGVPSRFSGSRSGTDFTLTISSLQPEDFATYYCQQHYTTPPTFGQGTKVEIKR
B14: Trastuzumab HCDR3 variant ASVDLGGFYDFRY (Fab, V domains shown)
VH: B13 VH with T97A, R98S, W99V, R100D, W101L, Y103G, G104F, Y106D, D108R, F109Y
VL: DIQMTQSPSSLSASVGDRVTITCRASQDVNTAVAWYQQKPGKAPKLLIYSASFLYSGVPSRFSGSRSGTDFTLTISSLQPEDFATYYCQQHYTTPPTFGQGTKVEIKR
B15: Trastuzumab HCDR3 variant ARYPSGYYYYFDY (Fab, V domains shown)
VH: B13 VH with T97A, W99Y, R100P, W101S, G104Y, F109Y
VL: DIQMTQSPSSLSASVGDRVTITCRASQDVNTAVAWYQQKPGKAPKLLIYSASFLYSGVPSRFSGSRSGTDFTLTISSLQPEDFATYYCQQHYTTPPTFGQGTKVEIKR
B16: Trastuzumab HCDR3 variant ARYGYGAYYYFDY (Fab, V domains shown)
VH: B13 VH with T97A, W99Y, R100G, W101Y, Y103A, G104Y, F109Y
VL: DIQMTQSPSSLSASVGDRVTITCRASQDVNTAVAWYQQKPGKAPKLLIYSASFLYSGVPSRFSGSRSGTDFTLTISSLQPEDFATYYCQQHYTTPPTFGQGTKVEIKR
B17: Trastuzumab HCDR3 variant ARYGDSYYYYFDY (Fab, V domains shown)
VH: B1 VH with A102S, F103Y, I104Y, M105Y, S106Y, G108D, V109Y
VL: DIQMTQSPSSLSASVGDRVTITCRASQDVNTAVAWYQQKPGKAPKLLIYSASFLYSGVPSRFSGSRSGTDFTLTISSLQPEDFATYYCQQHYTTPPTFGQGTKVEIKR
B18: Trastuzumab HCDR3 variant SRYYDYNYYFMDY (Fab, V domains shown)
VH: B1 VH with A97S, G100Y, A102Y, F103N, I104Y, M105Y, S106F, F107M, G108D, V109Y
VL: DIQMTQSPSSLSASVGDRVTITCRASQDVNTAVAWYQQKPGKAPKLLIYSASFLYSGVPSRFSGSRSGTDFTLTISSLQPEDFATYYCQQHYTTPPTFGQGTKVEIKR
B19: Trastuzumab HCDR3 variant ARYGDGTYYFFAH (Fab, V domains shown)
VH: B1 VH with A102G, F103T, I104Y, M105Y, S106F, G108A, V109H
VL: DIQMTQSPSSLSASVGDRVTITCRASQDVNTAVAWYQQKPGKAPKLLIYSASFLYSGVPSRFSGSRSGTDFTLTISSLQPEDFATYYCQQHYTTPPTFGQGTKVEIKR
B20: Trastuzumab HCDR3 variant ATGYGYLLYSDHD (Fab, V domains shown)
VH: EVQLVESGGGLVQPGGSLRLSCAASGFNIKDTYIHWVRQAPGKGLEWVARIYPTNGYTRYADSVKGRFTISADTSKNTAYLQMNSLRAEDTAVYYCATGYGYLLYSDHDWGQGTLVTVSS
VL: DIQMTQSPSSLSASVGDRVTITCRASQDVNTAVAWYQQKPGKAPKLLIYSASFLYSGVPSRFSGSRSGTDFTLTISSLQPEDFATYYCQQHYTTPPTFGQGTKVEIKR
B21: Trastuzumab HCDR3 variant ARYGGYGNYWFDT (Fab, V domains shown)
VH: B1 VH with D101G, A102Y, F103G, I104N, M105Y, S106W, G108D, V109T
VL: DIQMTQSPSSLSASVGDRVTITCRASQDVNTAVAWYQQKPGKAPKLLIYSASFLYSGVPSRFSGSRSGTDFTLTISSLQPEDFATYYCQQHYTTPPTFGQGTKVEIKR
B22: Trastuzumab HCDR3 variant ARYGGLGGYTLAY (Fab, V domains shown)
VH: B1 VH with D101G, A102L, F103G, I104G, M105Y, S106T, F107L, G108A, V109Y
VL: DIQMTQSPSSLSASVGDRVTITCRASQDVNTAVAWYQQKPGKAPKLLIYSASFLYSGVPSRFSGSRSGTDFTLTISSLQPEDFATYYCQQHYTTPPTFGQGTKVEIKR
B23: Trastuzumab HCDR3 variant ARYMRPAFYPFLY (Fab, V domains shown)
VH: B1 VH with G100M, D101R, A102P, F103A, I104F, M105Y, S106P, G108L, V109Y
VL: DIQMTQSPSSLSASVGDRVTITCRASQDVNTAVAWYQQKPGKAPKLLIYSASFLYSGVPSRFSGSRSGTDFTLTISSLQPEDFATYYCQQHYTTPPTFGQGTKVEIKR
B24: Trastuzumab HCDR3 variant ARYYSYGGYYFDY (Fab, V domains shown)
VH: B13 VH with T97A, W99Y, R100Y, W101S, G102Y, Y103G, F109Y
VL: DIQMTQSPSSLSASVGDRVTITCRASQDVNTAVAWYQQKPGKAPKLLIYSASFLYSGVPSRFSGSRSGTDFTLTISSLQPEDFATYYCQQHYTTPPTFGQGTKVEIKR
B25: Trastuzumab HCDR3 variant ATSGSVDRYDYVY (Fab, V domains shown)
VH: B20 VH with G99S, Y100G, G101S, Y102V, L103D, L104R, S106D, D107Y, H108V, D109Y
VL: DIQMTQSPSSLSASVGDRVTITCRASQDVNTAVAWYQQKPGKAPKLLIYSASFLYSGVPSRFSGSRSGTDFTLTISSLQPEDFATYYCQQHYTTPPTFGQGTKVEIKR
B26: Trastuzumab HCDR3 variant ASYGSGSYFSFPL (Fab, V domains shown)
VH: B1 VH with R98S, D101S, A102G, F103S, I104Y, M105F, G108P, V109L
VL: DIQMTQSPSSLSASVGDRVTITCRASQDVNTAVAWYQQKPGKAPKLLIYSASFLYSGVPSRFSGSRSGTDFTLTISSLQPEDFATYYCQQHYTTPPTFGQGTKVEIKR

Target: human epidermal growth factor receptor 2 (HER2) extracellular domain (human, UniProt P04626 23-629)
Experiment: SPR

With B1 as the binder, how does the Kd read?
Its Kd is 67.4 nM.

What about the “log(KD (M))” value of the same binder?
The value was -7.17 log(M).

What does the source list for B2?
Kd: 70.7 nM; log(KD (M)): -7.15 log(M)

For B3, which Kd is on record?
The Kd was 31.4 nM.

What about the “log(KD (M))” value of the same binder?
The value was -7.5 log(M).

For B4, which Kd is on record?
The Kd was 112 nM.

What about the “log(KD (M))” value of the same binder?
Its value is -6.95 log(M).

Which results are given for B5?
Kd: 36.3 nM; log(KD (M)): -7.44 log(M)

B6 was tested. Which Kd did it give?
Its Kd is 135 nM.

What about the “log(KD (M))” value of the same binder?
Its value is -6.87 log(M).

B7 was tested. Which Kd did it give?
The Kd was 135 nM.

And the “log(KD (M))” value?
The value was -6.87 log(M).

Which Kd does the source give for B8 here?
The Kd was 41.3 nM and 41.2 nM.

What about the “log(KD (M))” value of the same binder?
Its value is -7.38 log(M).

With B9 as the binder, how does the Kd read?
The Kd was 42.8 nM.

And the “log(KD (M))” value?
Its value is -7.37 log(M).

For B10, which Kd is on record?
The Kd was 71.8 nM.

And the “log(KD (M))” value?
Its value is -7.14 log(M).

B11 was tested. Which Kd did it give?
The Kd was 79.7 nM.

What about the “log(KD (M))” value of the same binder?
Its value is -7.1 log(M).

How did the Kd turn out when B12 was run?
Its Kd is 41.6 nM.

What about the “log(KD (M))” value of the same binder?
The value was -7.38 log(M).

What does the source list for B13?
Kd: 78.1 nM; log(KD (M)): -7.11 log(M)

Which results are given for B14?
Kd: 46.1 nM; log(KD (M)): -7.34 log(M)

How did the Kd turn out when B15 was run?
Its Kd is 90.1 nM.

And the “log(KD (M))” value?
Its value is -7.05 log(M).

With B16 as the binder, how does the Kd read?
Its Kd is 54 nM.

And the “log(KD (M))” value?
The value was -7.27 log(M).

Which Kd does the source give for B17 here?
The Kd was 40.6 nM.

What about the “log(KD (M))” value of the same binder?
The value was -7.39 log(M).

How did the Kd turn out when B18 was run?
Its Kd is 141 nM.

And the “log(KD (M))” value?
The value was -6.85 log(M).

What does the source list for B19?
Kd: 97.3 nM; log(KD (M)): -7.01 log(M)

How did the Kd turn out when B20 was run?
The Kd was 171 nM.

What about the “log(KD (M))” value of the same binder?
Its value is -6.77 log(M).

How did the Kd turn out when B21 was run?
Its Kd is 42.1 nM.

And the “log(KD (M))” value?
The value was -7.38 log(M).

With B22 as the binder, how does the Kd read?
Its Kd is 42.9 nM.

What about the “log(KD (M))” value of the same binder?
The value was -7.37 log(M).

B23 was tested. Which Kd did it give?
Its Kd is 50.9 nM.

And the “log(KD (M))” value?
Its value is -7.29 log(M).

Which Kd does the source give for B24 here?
The Kd was 106 nM.

And the “log(KD (M))” value?
Its value is -6.98 log(M).

Which Kd does the source give for B25 here?
Its Kd is 155 nM.

What about the “log(KD (M))” value of the same binder?
The value was -6.81 log(M).

How did the Kd turn out when B26 was run?
The Kd was 53.9 nM.

And the “log(KD (M))” value?
Its value is -7.27 log(M).
